Measurements as given in patent US10513563.

Molecular target: transferrin receptor on H4IIE hepatoma cells (rat) (UniProt Q99376)
Assay: cell-based or functional assay

UniProt Q99376, sequence (Q99376 whole entry): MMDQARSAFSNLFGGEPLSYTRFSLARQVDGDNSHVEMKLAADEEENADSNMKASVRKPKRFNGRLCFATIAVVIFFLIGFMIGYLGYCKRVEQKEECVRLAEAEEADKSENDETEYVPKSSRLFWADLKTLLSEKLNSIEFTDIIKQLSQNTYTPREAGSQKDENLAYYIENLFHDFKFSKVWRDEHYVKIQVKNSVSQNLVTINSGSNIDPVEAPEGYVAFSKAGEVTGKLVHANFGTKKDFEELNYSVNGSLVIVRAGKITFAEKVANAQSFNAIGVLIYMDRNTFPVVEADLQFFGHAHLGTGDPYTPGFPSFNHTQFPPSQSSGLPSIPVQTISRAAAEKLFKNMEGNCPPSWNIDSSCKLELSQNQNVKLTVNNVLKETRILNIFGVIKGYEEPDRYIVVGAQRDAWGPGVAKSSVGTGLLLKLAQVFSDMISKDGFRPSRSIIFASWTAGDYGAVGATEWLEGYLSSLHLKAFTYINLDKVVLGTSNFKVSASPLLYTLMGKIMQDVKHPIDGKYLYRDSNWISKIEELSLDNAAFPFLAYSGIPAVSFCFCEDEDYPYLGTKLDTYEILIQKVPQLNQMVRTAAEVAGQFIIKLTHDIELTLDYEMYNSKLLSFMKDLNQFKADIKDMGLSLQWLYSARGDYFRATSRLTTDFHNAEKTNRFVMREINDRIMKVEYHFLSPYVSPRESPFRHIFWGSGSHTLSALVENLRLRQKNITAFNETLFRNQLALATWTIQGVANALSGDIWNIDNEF

IC50 of inhibition of glucose production in H4IIE cells (24 hr treatment): 4.6 pM
activity in inhibition of glucose production in H4IIE cells relative to proinsulin and insulin: 300 fold
Substance: PI-Tf fusion protein (proinsulin-transferrin recombinant fusion protein)
